A short description of this data set: soluble on expression in E. coli; label from the status in PepcDB or PDB records.
For “QTNSPASIPHLILELLKCEPDEPQVQAKIMAYLQQEQSNRNRQEKLSAFGLLCKMADQTLFSIVEWARSSIFFRELKVDDQMKLLQNCWSELLILDHIYRQVAHGKEGTIFLVTGEHVDYSTIISHTEVAFNNLLSLAQELVVRLRSLQFDQREFVCLKFLVLFSSDVKNLENLQLVEGVQEQVNAALLDYTVCNYPQQTEKFGQLLLRLPELRAISKQAEDYLYYKHVNGDVPYNNLLIEMLHAKRA”, the “soluble on expression in E. coli” value was “soluble”.
Under “QWGAPEAQKMARDLRSFALSGGSIVSVRAGVWARDANDFIFIGKVEDDKLYALNMWRFDDDKNLEKVIFAEEVDYQQDNNWLMRDVQITNMQDENVISKQEMDQMEWHTSLAPDKLAVVTVKPEELSLSGLYDYVTYLKASEQDASRYELAFWRKLTQP” stands “not soluble”.
Under “QYRIIDFKRDKDGIPGRVATIEYDPNRSANIALINYADGEKRYIIAPKNLKVGMEIMSGPDADIKIGNALPLENIPVGTLVHNIELKPGRGGQLVRAAGTSAQVLGKEGKYVIVRLASGEVRMILGKCRATVGEVGN” stands “soluble”.
Under “QYWDLRKTQQTGQCQSREDYYSAFRNEIQQSIRQSIRTDAEIMAHYSGGLDSSSIASIAALQLAKENKTLMAYTAIPKYLSGDSHRKGCKYHELDRVQSACRYYDNIETIVYQSSEDLSIFDKLQVFYPYLDQPFKAVFNMEWILAGLEMAAAKNCRILLNGEQGNGSISWKGVTLGNYLNQRVKFTRHLLKYHMKLGKQFIKSGSLNLKKNRTDLNEMKKNFLEPHYSLLRGKNRLETRSYMRSIYLWFGVEVIDPTSNLDLVQFCYDLPEWVYHGGNKYFEIRRLPKLKRRLLVRDALEGLVPPEIRHNPYRGEQAADWYYQFNKYGHAWGRLLADIAEKHPLIWEIYPKKYLLDLFANHPISPQSRNFQDVNMHLVPALSTAFFINYLNDLY” stands “not soluble”; under “RAGLSKLPDLKDAEAVQKFFLEEIQLGEELLAQGDYEKGVDHLTNAIAVCGQPQQLLQVLQQTLPPPVFQMLLTKLPTISQRIVSAQSLGEDDVE”, “soluble”; under “RAKGTLRIWAEPFTKLRVPKIFNLRMDPYEVADVTSNTYYDWMLDRAYMLVPAQTYVGRFLETFKEFPPRQKAASFSLDQVMEKLQENPNK”, “not soluble”.
In the case of “RALCDEDMKKVFTRLPSSSAIPLAVRRAQDMFVLMFLLRGLPFVDLAYLRKSDLRDNVITYRRRKTGRPLSVTLTPEALELLKKYMNRDSHSPYLFSLLKSGEGTKEAYREYQLALRSFNQQLTLLGEVLGLNDKLSSYTARHTWATTAYYCEIHPGIISEAMGHSSIKVTETYLKPFRNKKIDEANNQIIDFVKHSIAGVVS”, the “soluble on expression in E. coli” value is “not soluble”.
The result for “RDFSPVPWSQYFESMEDVEVENETGKDTFRVYKSGSEGPVLLLLHGGGHSALSWAVFTAAIISRVQCRIVALDLRSHGETKVKNPEDLSAETMAKDVGNVVEAMYGDLPPPIMLIGHSMGGAIAVHTASSNLVPSLLGLCMIDVVEGTAMDALNSMQNFLRGRPKTFKSLENAIEWSVKSGQIRNLESARVSMVGQVKQCEGITSPEGSKKDHPYTWRIELAKTEKYWDGWFRGLSNLFLSCPIPKLLLLAGVDRLDKDLTIGQMQGKFQMQVLPQCGHAVHEDAPDKVAEAVATFLIRHRFAEPIGGFQCVFPGC” reads “soluble”; that for “RENRNGDLYSLIYGTVSSEAIDPVEKKPLYHFFPGSYVYSVGTIGCNFRCKHCQNWSISQVCLEDAYTKDILPEELVERALLSDSKSIAWTYNEPTIWHEYTYESAKLAKEAGLGTIYVTNGYMTPESLKHIAPYLDAANIDIKAFNEKFYHDIASAKLAPVLEASALAKELGIHVEITTLIIPGVNDSLDELRELSKWVYKNLGPDTPLHFTRFHPQYKMQDLSPTPVKTMENACKIATEEGMKYVYMGNV”, “not soluble”; that for “RGEPYAGQVAVGATVINRTKNPKFPSTIAGVIYQPGAFTAIVDGQIHATMEPNSIRAARDALNGWDPSGGAIYYFNPATATSGWIWSRPLIIIIGKHRFCR”, “not soluble”.
Under “RGETIKGQFAVAEVILNRVQSERFPNTPCGVIRQGTGRKYQCQFTYTCDGRKEVIAEKQAYERVAKVARLAMDGAAESLTDGATYYHTTAVRPSWARRFTQTTKIGVHLFYRQGQRTASN” stands “not soluble”; under “RGFQHGIRHNVEQFGMGTSAISFSTWRTSKEYGGYPKDRYIELTPADCDYLVKLNPDLIKGAAYYTNQWSYDVQYEDRTHSTPTKAVSGEYGNMVKTHLIEGRFLSTSDDAMKRKVIVLCEQTADVLFGESISPIGKYVNLSQIPFLVVGVCKGEQGQFSPNYIPFATYSGIFAKGFSLDCTLFMNCPSVRTEENVERLKVLLNRQLAFRKGYDPTDMEVPYVDAPVTDIKMMDKIFNGMD”, “not soluble”; under “RHMELSPDGNLKTTITIGDRLTYDITCNGRQILTPSPISMTLDNGTVWGENAKLSGTSRKSVDEMIPSPFYRASELRNHYNGLTLRFKKDWNVEFRAYNDGIAYRFVNQGKKPFRVVTEVSDYCFPSDMTASVPYVKSGKDGDYNSQFFNSFENTYTTDKLSKLNKQRLMFLPLVVDAGDGVKVCITESDLENYPGLYLSASEGANRLSSMHAPYPKRTVQGGHNQLQMLVKEHEDYIAKVDKPRNFPWRIAVVTTTDKDLAATNLSYLLGAPSRMSDLSWIKPGKVAWDWWNDWNLDGVDFVTGVNNPTYKAYIDFASANGIEYVILDEGWAVNLQADLMQVVKEIDLKELVDYAASKNVGIILWAGYHAFERDMENVCRHYAEMGVKGFKVDFMDRDDQEMTAFNYRAAEMCAKYKLILDLHGTHKPAGLNRTYPNVLNFEGVNGLEQMKWSSPSVDQVKYDVMIPFIRQVSGPMDYTQGAMRNASKGNYYPCYSEPMSQGTRCRQLALYVVFESPFNMLCDTPSNYMREPESTAFIAEIPTVWDESIVLDGKMGEYIVTARRKGDVWYVGGITDWSARDIEVDCSFLGDKSYHATLFKDGVNAHRAGRDYKCESFPIKKDGKLKVHLAPGGGFALKIK”, “soluble”.
The result for “RHQVESSPLFRALALRCNQTMVTLRSANMFHAYGFLAKVFEILAKHKISVDLITTSEISVSLTLDQTDTSGGAPQLPQAAREELEELCKVEVEHDLCLVALIGNKMSERKGYAKQVFGTLEDLNLRMICYGASPHNLCFLVNESVAKQAIQKLHTELFEQ” reads “not soluble”; that for “RKLHAEELLRLAMAHLRNQGKPVRIVDIAAGHGRYILESLRGVEPLPESILLRDYSDINVRDGSLLIEQKDLEDIARFVKGDAFDRNDLATLDPKPTLAVVSGLYELFSSNQMVGDSLAGLAAAVEPGGYLVYTGQPWHPQLELIARALTSHREGQAWVMRRRSQSEMDQLVEAAGFRKITQRVDEWGIFTVSLAQRIQ”, “not soluble”; that for “RKLTMNSNYKREDFVNETEVRWCPGCGDYAILAALQRVLPELGLPPEQHVFVSGIGCAGRLPYYMNTYGFHTIHGRATAVATGLKAMREDLCVWVITGDGDALSIGGNHLLHILRRNVNVNILLFNNQVYGLTKGQFSPTSQKGQVTKTSPKGVTSEPINPIMIALASGASFVARAVDKDPVHLASVLKKAYEHKGCSFVEIYQDCNIFNHGAFDDFAVKNNRAENTIILEDGQPLVFGAQKEKALQLDDEQFVQISIDEKTLYKHDEKNLISAMRLARLTFPDYPVPLGVYYQKDRERFTLSQEVKKRPEDLP”, “not soluble”.
As for “RKNSQSETFKVGVLQYVSHNALDEIYRGIKAGLKEEGYSGKKIKIDFMNAEGDQSKVQTMSQTLVNHKNDVLVGIATPAAQGLASATKKTPIIMGAVTDPVGAKLVKDLKKPNGNVTGVSDKTPISDQVSLIKKLTPDVKTVGILYSSSEDNSKSQVEEFKKIAEKKGYKVLEYSVPSTNEIATTMNVMLDKTDAVWIPLDNTIASAFPTVVSAAKTAKKPIYPSVDTMVTEGGLASVVVDQYKLGVATGKMAVKVFEGKKVSQLPVDIFDKGTPVVNKKVAKELGIDIPSDILKKAKQQKNQ”, the “soluble on expression in E. coli” value was “not soluble”.
The result for “RKQDTQRALHLLEEYRSKLSQTEDRQLRSSIERVISIFQSNLFQALIDIQEFYEVTLLDN” reads “soluble”.
Under “RLCKALYSFQARQDDELNLEKGDIVIIHEKKEEGWWFGSLNGKKGHFPAAYVEELPSNAGNTATKA” stands “soluble”; under “RLIVGKHHWKIEKQPEWYVKAVRKTIAALPSGYAEAADWLDVTENALFNRLRADGDQIFPLGWAMVLQRAGGTHFIADAVAQSANGVFVSLPDVEDVDNADINQRLLEVIEQIGSYSKQIRSAIEDGVVEPHEKTAINDELYLSISKLQEHAALVYKIFCISESNDARECAAPGVVASIASGCGETNA”, “soluble”.
The result for “RLLKVPVFVHESDLSMGLANKIAYKFATIMYTTFEQSKDLIKTKHIGAVTKVMDCKKSFENTDLTSIKEAFDPNLKTLLFIGGSAGAKVFN” reads “not soluble”.
Regarding “RNMDASPLAKRNSLQLFTDGQEKFQALFEDIRAAKETVHVEYYAFFNDTIGNQFLDVLIEKLHEGVEVYLIYDPWGSPGANKKFFARYVDAGGKVAPFITSRDMIRKTRLNYHLHRKIVVIDGKIGWTGGFNVGDQYLNVTEKFGYWRDTHIRLVGTAVFSLQEIFIMDWNASVKYPEERMTYHEKYFKLPEDHEVEHLSLQVVSDGPDSEEEILKSG”, the “soluble on expression in E. coli” value is reported as “not soluble”.
The result for “RNRQQRPGTIKHGSALDVLLSMGFPRARAQKALASTGGRSVQTACDWLFSH” reads “soluble”; that for “RPQNTNSWQKDSIEGIDIMLAMDVSGSMQAMDFKPNRLEAAKDVAISFINNRPNDNIGMVTFAGESFTQCPLTTDHTVLLNMVQDLQ”, “soluble”.
The result for “RQRSLSTSGESLYHVLGLDKNATSDDIKKSYRKLALKYHPDKNPDNPEAADKFKEINNAHAILTDATKRNIYDKYGSLGLYVAEQFGEENVNTYFV” reads “soluble”; that for “RTEVVAVALDTSLEELKGRFVESGISKIIVYDGNIDNVVGYIHSSEMFRSPKDWRNHVKEVPIVPETMAAHKLMKLFMQQKKTIAVVVDEFGGTSGIVSLEDLVEEIFGDIEDEHDNTSYICKQIGE”, “not soluble”; that for “RWYQRYLNPDRRHLAIDPYICGTVLTYSSDAPIGDSAPTTSCYMTGMPSNTGFVSTYPVSSGDADLIPVDKARAYSPLATFLEAAKIMKGKKTGLVVTCHFPHATPADCSAHSYSRKKYDWIAAQMVHQNLDVVLGGGTHYLHPELQSVLNSRGYGLFLDDLNGMRTYAGDRMWALFGKREMPYDLDRDTTQIPSLEEMTRLAIEKLNRSEEGFFLMVEGSKVDWAAHANDPVGIATEYLAFDRACAVAFDFARRDGQTAVIIVPDHGNSGVSIGKQSVKDYDKRSAKDLFDQLCRFRLTADGLAGRLADTPADKVQGLVSNICGFELDAKELEALYNCPDYNHSPIPKEQRRQTEESLYSGSLSTFIASLYTKHTSIGFTTHGHTAEEVLLAAYHPQDTRPMGMVINYELNDYLCRLFELGSQLPVLTDKIFAPHTEVFQGMSYSIKDGKKEGELPVLEVKKGSHRLLASPFSNTVIFNKKAIDLSSVVVYVDKTKTFYLPRELRSLFGE”, “not soluble”.

Values taken from the DeepSol protein solubility set.
